In US20240091382A1, “MINIMAL BILE ACID INDUCIBLE PROMOTERS FOR GENE THERAPY” (priority 2020, published 2024):

B1: imPr+LRH-1: slightly longer imPr variant including the upstream LRH-1 element (SEQ ID NO: 21) (nucleic acid)
DNA: TTTCTAAAGCTTGTTGATACCCTCAGAAGGTCCCCACGCACTCTGGGTTTGGGTTCCTGCTTTGAGTATGTTCGACCTTTCCTCTCATGTCACTGAACTGTGCTAGATCTGGACTTTAGGCCATTGACCTATAAGCAAATAGATAGTGTTCTTAAAAAAGCCTGATTTCTGTTCAATGCTTTATTACCATGAAAACTGAACTTGGAAAGGGGTGTACAACCCTGACTTTCCACAGTGGCGTCTCTCGCTTCTCCTGGCTCCCTCAAATTCACA
modifications: Synthetic imPr+ LRH-1
B2: imPr+1xIR: imPr variant with one extra repeat of the murine IR-1 element at the 5′end (SEQ ID NO: 6) (nucleic acid)
DNA: TTAGGCCATTGACCTAGGTTCCTGCTTTGAGTATGTTCGACCTTTCCTCTCATGTCACTGAACTGTGCTAGATCTGGACTTTAGGCCATTGACCTATAAGCAAATAGATAGTGTTCTTAAAAAAGCCTGATTTCTGTTCAATGCTTTATTACCATGAAAACTGAACTTGGAAAGGGGTGTACAACCCTGACTTTCCACAGTGGCGTCTCTCGCTTCTCCTGGCTCCCTCAAATTCACA
modifications: Synthetic imPR+1xIR
B3: imPr+3xIR-ER2: imPr variant with three repetitions of the IR-1-ER2 element (SEQ ID NO: 20) (nucleic acid)
DNA: TGGACTTTAGGCCATTGACCTATGGACTTTAGGCCATTGACCTATGGACTTTAGGCCATTGACCTAGGTTCCTGCTTTGAGTATGTTCGACCTTTCCTCTCATGTCACTGAACTGTGCTAGATCTGGACTTTAGGCCATTGACCTATAAGCAAATAGATAGTGTTCTTAAAAAAGCCTGATTTCTGTTCAATGCTTTATTACCATGAAAACTGAACTTGGAAAGGGGTGTACAACCCTGACTTTCCACAGTGGCGTCTCTCGCTTCTCCTGGCTCCCTCAAATTCACA
modifications: Synthetic imPr+3xIR-ER2
B4: imPr+3xIR: imPr variant with three extra repeats of the murine IR-1 element (SEQ ID NO: 7) (nucleic acid)
DNA: TTAGGCCATTGACCTATTAGGCCATTGACCTATTAGGCCATTGACCTAGGTTCCTGCTTTGAGTATGTTCGACCTTTCCTCTCATGTCACTGAACTGTGCTAGATCTGGACTTTAGGCCATTGACCTATAAGCAAATAGATAGTGTTCTTAAAAAAGCCTGATTTCTGTTCAATGCTTTATTACCATGAAAACTGAACTTGGAAAGGGGTGTACAACCCTGACTTTCCACAGTGGCGTCTCTCGCTTCTCCTGGCTCCCTCAAATTCACA
modifications: Synthetic imPR+3xIR
B5: imPr+5xIR: imPr variant with five extra repeats of the murine IR-1 element (SEQ ID NO: 19) (nucleic acid)
DNA: TTAGGCCATTGACCTATTAGGCCATTGACCTATTAGGCCATTGACCTATTAGGCCATTGACCTATTAGGCCATTGACCTAGGTTCCTGCTTTGAGTATGTTCGACCTTTCCTCTCATGTCACTGAACTGTGCTAGATCTGGACTTTAGGCCATTGACCTATAAGCAAATAGATAGTGTTCTTAAAAAAGCCTGATTTCTGTTCAATGCTTTATTACCATGAAAACTGAACTTGGAAAGGGGTGTACAACCCTGACTTTCCACAGTGGCGTCTCTCGCTTCTCCTGGCTCCCTCAAATTCACA
modifications: Synthetic imPR+5xIR

Each molecule was assayed on Huh-7 cells (assay: Luciferase expression from BSEP-derived promoter plasmids in Huh-7 cells (FXR co-transfection, CDCA induction)). Settings: Huh-7, pCMV-hFXRα2, 30 μM CDCA.
Format: cell-based, human
Method: FIG. 2. […] In all cases, cells were also transfected with a Renilla expressing plasmid (pRL-CMV). Luciferase and Renilla expression were measured with a luminometer. All samples were tested in triplicates and data are presented as mean±SEM of relative (rel.) units (Luciferase units sec^−1/Renilla units sec^−1). The fold induction of each condition relative to cells transfected only with the luciferase plasmid (Luc plasmid) is indicated on top of each column. The statistical comparison between these two conditions was performed by using an unpaired […] T test. *, p<0.05; **, p<0.01; ***, p<0.001. imPr and ihPr, pAAV-imPr-LucPEST and pAAV-ihPr-LucPEST, respectively; full length mPr, pAAV-mBSEPpr-LucPEST; full length hPr, p-2563/+4-Luc; A1AT, pAAV-A1AT-LucPEST.
FIG. 18. […] In all cases, cells were also transfected with the same amount of Renilla expressing plasmid (pRL-CMV) to determine the transfection efficiency. Luciferase and Renilla expression were measured with a luminometer. All samples were tested in triplicates and data are presented as mean±SEM of relative (rel.) units (Luciferase units sec^−1/Renilla units sec^−1). The fold induction of each condition relative to cells transfected only with the luciferase plasmid (Luc plasmid) is indicated on top of each column. The statistical comparison between these two conditions was performed by using an unpaired T test. *, p<0.05; **, p<0.01; ***, p<0.001; ****, p<0.0001.
The inventors first tested whether luciferase expression could be induced by bile salts in hepatic cells from human (Huh-7 and HepG2) and mouse origin (Hepa1-6). For this purpose, they transfected confluent monolayers of these cells in 12-well plates with 0.5 μg pAAV-miPr-LucPEST or pAAV-hiPr-LucPEST plasmids, or with the same amount of control plasmids (pAAV-mBSEPpr-LucPEST, p-2563/+4-Luc and pAAV-A1AT-LucPEST), together with 0.5 μg of plasmids expressing either human FXRα1 (pcDNA3.1-hFXRα1, ordered from GenScript) or FXRα2 (pCMV-hFXRα2, ref NR1H4 cDNA Resource Center, Bloomsburg, PA), two isoforms of FXR that can exert different transcriptional regulation). […] Furthermore, to normalize luciferase expression, and correct for differences in transfection efficiencies, the inventors also co-transfected cells with 0.2 μg of a plasmid expressing Renilla-luciferase from a constitutive promoter (pRL-CMV, Promega). All transfections were performed using lipofectamine 2000 (Thermo Fisher). […] After induction, cells were collected and luciferase and Renilla expression were measured in cell extracts using an Orion L Microplate Luminometer.
The inventors tested luciferase expression of plasmids containing the variants of imPr promoter in Huh-7 cells as described above. Briefly, the inventors transfected confluent cell monolayers in 12-well plates with 0.5 μg of each of the corresponding plasmids, using as control pAAV-miPr-LucPEST, together with 0.5 μg of pCMV-hFXRa2 using lipofectamine 2000. To normalize luciferase expression, the inventors co-transfected cells with 0.2 μg of a plasmid expressing Renilla-luciferase from a constitutive promoter (pRL-CMV). […] After induction, cells were collected and luciferase and Renilla expression were measured in cell extracts as described.
B1 was tested, and the “level of luciferase expression compared to plasmid containing imPr promoter” value was “not observed”.
In the case of B2, the “level of luciferase expression compared to plasmid containing imPr promoter” value is reported as “significantly higher level of luciferase expression”.
B3 was tested, and the “level of luciferase expression compared to plasmid containing imPr promoter” value was “not observed”.
For B4, the “level of luciferase expression compared to plasmid containing imPr promoter” value was “significantly higher level of luciferase expression” and the “luciferase expression compared to imPr+1xIR” value was “significantly higher luciferase expression than imPr+1xIR”.
In the case of B5, the “level of luciferase expression compared to plasmid containing imPr promoter” value is reported as “not observed”.
